Assays:
[1] = target: Flk-1-Fc (mouse vascular endothelial growth factor receptor-2 Fc chimera) (mouse) (UniProt P35918); assay: radioactive equilibrium binding assay, % bound at 1 nM Flk-1-Fc
[2] = target: T1, Flk-1-Fc (mouse vascular endothelial growth factor receptor-2 Fc chimera) (mouse, UniProt P35918 20-762); assay: as above
T1 construct: Bought from R&D Systems; also called mouse VEGFR-2-Fc; Fc part of the bought chimera not given
Experimental: To prepare ³⁵S-labeled binding proteins for analysis, mRNA was prepared as described above for RNA-protein fusion production but the linker ligation step was omitted. The mRNA was expressed using rabbit reticulocyte lysate translation kit (Ambion) in the presence of ³⁵S-labeled Met at 30° C. for 1 hour. Expressed protein was purified on M2-agarose Flag beads (Sigma) as described above. This procedure produced the encoded protein without the nucleic acid tail. In a direct binding assay, VEGF-R2-Fc fusions in concentrations ranging from 0 to 200 nM were added to a constant concentration of the purified protein (0.2 or 0.5 nM) and incubated at 30° C. for 1 hour in buffer B. The receptor-binder complexes were captured using Protein A magnetic beads for another 10 minutes at room temperature using a Kingfisher™ The beads were washed with six reaction volumes of buffer B. The protein was eluted from the beads with 100 μL of 0.1 M KOH. 50 μL of the reaction mixture and elution were dried onto a LumaPlate-96 (Packard) and the amount of ³⁵S on the plate was measured using a TopCount NXT instrument (Packard). The amount of fibronectin-based scaffold protein bound to the target was estimated as a percent of radioactivity eluted from Protein A magnetic beads compare to radioactivity in the reaction mixture. Nonspecific binding of fibronectin-based scaffold proteins to the beads was determined by measuring binding in the absence of KDR-Fc and represented less than 1-2% of the input. Specific binding was obtained through subtraction of nonspecific binding from total binding. Data was analyzed using the GraphPad Prizm software (GraphPad Software, Inc, San Diego, Calif.), fitted using a one site, non-linear binding equation.

[3] = target: T2, Flk-1-Fc (mouse vascular endothelial growth factor receptor-2 Fc chimera) (mouse, UniProt P35918 20-762); assay: method not given
T2 construct: Purchased from R&D Systems; also called mouse VEGF-R2-Fc; not shown: Fc part of the purchased chimera

Sequence of Flk-1-Fc (mouse vascular endothelial growth factor receptor-2 Fc chimera) (mouse) (P35918 20-762, change not shown): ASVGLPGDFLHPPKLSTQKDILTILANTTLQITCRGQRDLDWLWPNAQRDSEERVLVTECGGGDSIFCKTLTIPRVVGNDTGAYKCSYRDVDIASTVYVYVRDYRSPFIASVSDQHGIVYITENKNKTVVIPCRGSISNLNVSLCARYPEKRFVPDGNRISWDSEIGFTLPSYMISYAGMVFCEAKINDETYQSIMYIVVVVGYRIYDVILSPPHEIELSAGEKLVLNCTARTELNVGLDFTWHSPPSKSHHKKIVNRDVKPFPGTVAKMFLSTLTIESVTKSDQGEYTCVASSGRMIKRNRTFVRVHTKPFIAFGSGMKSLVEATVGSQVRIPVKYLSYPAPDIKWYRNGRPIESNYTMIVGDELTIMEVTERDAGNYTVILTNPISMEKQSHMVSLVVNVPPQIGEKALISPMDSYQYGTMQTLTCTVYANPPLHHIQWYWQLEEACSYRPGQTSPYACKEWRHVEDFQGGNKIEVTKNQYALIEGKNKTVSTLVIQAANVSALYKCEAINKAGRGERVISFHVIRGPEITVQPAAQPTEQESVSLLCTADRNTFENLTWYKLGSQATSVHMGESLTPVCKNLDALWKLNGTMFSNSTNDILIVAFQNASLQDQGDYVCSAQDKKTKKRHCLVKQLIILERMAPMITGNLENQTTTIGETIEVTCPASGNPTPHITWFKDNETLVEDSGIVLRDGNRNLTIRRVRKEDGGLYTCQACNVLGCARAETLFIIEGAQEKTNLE

Row | Binding to 1 nM Flk-1, % [2] | Binder | also measured
1 | – | EGE11 (SEQ ID NO: 87) (designed binder) EVVAATPTSLLISWRHPHFPTRYYRITYGETGGNSPVQEFTVPLQPPTATISGLKPGVDYTITGYAVTMGKNDRELLTPISINYRT | Binding to 1 nM Flk-1, % [1]: 1%
2 | 21% | B12 (designed binder, 10Fn3 clone, Del 1-8) EVVAATPTSLLISWRHPHFPTRYYRITYGETGGNSPVQEFTVPLQPPTATISGLKPGVDYTITGYAVTVERNGRELRTPISINYRT | –
3 | 2% | G1 (designed binder, 10Fn3 clone, Del 1-8) EVVAATPTSLLISWRHPHFPTRYYRITYGETGGNSPVQEFTVPLQPPTATISGLKPGVDYTITGYAVTEGRNGRELMVPISINYRT | –
4 | 1% | F12 (designed binder, 10Fn3 clone, Del 1-8) EVVAATPTSLLISWRHPHFPTRYYRITYGETGGNSPVQEFTVPLQPPTATISGLKPGVDYTITGYAVTDGRNGHELMTPISINYRT | –
5 | – | 159Q(8)L (designed binder, also called clone 159) VSDVPRDLEVVAATPTSLLISWRHPHFPTRYYRITYGETGGNSPVQEFTVPLQPPAATISGLKPGVDYTITGYAVTMAQSGHELFTPISINYRT | Kd [3]: > 3000 nM
